Reference: paper PMC3650007, “Human Rotavirus VP6-Specific Antibodies Mediate Intracellular Neutralization by Binding to a Quaternary Structure in the Transcriptional Pore” (PLoS ONE, 2013)

Target: T1, VP6 fragment (VP6f), residues 147-339 (Rotavirus A, strain of the VP6 DNA …)
T1 construct: also called VP6 head domain construct
T1 chain: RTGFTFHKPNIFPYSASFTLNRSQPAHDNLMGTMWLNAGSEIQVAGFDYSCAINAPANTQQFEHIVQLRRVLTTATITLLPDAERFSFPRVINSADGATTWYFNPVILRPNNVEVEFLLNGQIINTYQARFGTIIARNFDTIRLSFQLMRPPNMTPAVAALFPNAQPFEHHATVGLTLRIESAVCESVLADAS
Experiment: HDX-MS
Conditions: both partners purified

B1: RV6-26 Fab (Fab, V domains shown)
VH: EFQLVESGAEVKKPGASVKVSCKASGYSFTSYYVHWVREAPGEGLEWMGMINPSDGSTYYAQRFQPRVTMTRDTSTTTVFMEMSGLRSEDTAVYYCARGVVGATNEIDFWGQGTTVTVSS
VL: DIRLTQSPSSLSASVGDRVTITCRASQSISNYLNWYQKKPGQAPKLLIYAATSLQSGVPSRFSGSGSGTDFTLTISSVQPEDFATYYCQKTLRTWTFGQGTKVEIK
binding result: binds
